Assay results from the nanobody polyreactivity screen of Harvey et al. (2022).

Experiment: yeast display, Sf9 membrane polyspecificity reagent, FACS + sequencing; frameworks hold sequencing errors
Outline: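 A nanobody's polyreactivity label depends on the gate it was sorted from. Yeast display cells were stained with 10% biotinylated, detergent-solubilized Sf9 membrane reagent for 1 hour at 4 °C, enriched on streptavidin microbeads and sorted by FACS. The low and high (top ~1%) gates were set on anti-HA fluorescence for expression and streptavidin fluorescence for reagent binding.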

Row | Sequence | polyreactivity (PSR sort gate)
1 | QVQLVESGGGLVQAGGSLRLSCAASGFILEPNAMGWYRQAPGKERELVATISFSGGGTYYADSVKGRFTISRDNAKNTVYLQMNSLKPEDTAVYYCAADWYYYVWWYDYWGQGTQVTVSS | high polyreactivity
2 | QVQLVESGGGLVQAGGSLRLSCGASGFFFEPNSMGWYRQATGKERELVAAISSGGSTYADSVKGRFTISRDNAKNPVYLQMNSLKPEDTAVYYCAARPNQSYYGLYYYWGQGTQVTVSS | low polyreactivity
3 | QVQLVESGGGLVQAGGSLSLSCAASGLIFDVYAMGWYRKAPGKERELVAVISRGVSTNYPDSVKGRFTISRDNAKNTVYLQMNSLKPEDTAVYYCATDSRGYDYWGQCTQVTVSS | high polyreactivity
4 | QVQLVESGGGLVQAGGSLRLSCAASGRIFPVYVMGWYRQAPGKEREFVASISWRGGSTFYADSVKGRFTISRDNAKNTVYLQMNSLKPEDTAVYYCAADYWSSDSSRGTMYYWGQGTQVTVSS | low polyreactivity
5 | QVQLVESGGGLVQAGGSLRLSCAASGFTFYVYAMGWYRQAPGKERELVAAISRGGSTYYADSVKGRFTISRDNAKNTVYLQMNSLKPEDTAVYYCNRVPYVSSSKVRYSNGFDYWGQGTQVTVSS | low polyreactivity
6 | QVQLVESGGGLVQAGGSLRLSCAASGLTFSLYAMAWYRQAPGNESELVAANSWTGGSTYYADSVKGRFTISRDNAKNTVYLHMNSLKPEDTAVYYCNARYTLFARYGYDYWGQGTQVTVSS | low polyreactivity
7 | QVQLVESGGGLVQAGGILRLSCAASGRIFTRYSLGWYRPAPGKESELVAAISSGGSTYYADSVKGRFTISRDNAKNTVYLQMNSLKPEDTAVYYSAAKTRPQRTFSTRQQMNYWGQGTQVTVSS | high polyreactivity
8 | QVQLVESGGGLVQAGGSLRLSCPASGRIVANAMGWYIQAPGKERELVAAISSVGSTNYADSVKGRFTISRDNAKNTVYLQMNSLKPEDTAVYYCAARGYRWYIAVDFWGQGTQVTVSS | low polyreactivity
9 | QVQLVESGGGLVQAGGRLRLSCAASGRIFVYYAMGWYRQAPGQERELVAAITYSVDSTYYADSVKGRFTISRDNAKNTVYLQMNSLKPEDTAVYYCATDVDWAYGYQYEYWGQGTQVTVSS | low polyreactivity
10 | QVQLVESGGGLVQAGGSLRLSCAASGRTFLSYMGWYRQAPGKERELVAISRSGTSTYYADSVKGRFTISRDNAKNTVYLQMNSLKPEDTAVYYCAATRRYPQYRGYDYWGQGTQVTVSS | high polyreactivity
11 | QVQLVESGGGLVQAGGSLRLSCAASGFIFVKNAMGWYRQAPGKERELVAVISTRGGRTYYADSVKGRFTISRDNAKNTVYLQMNSLKPEDTAVYYCAALYWYSRSSWDYDYWGQGTQVTVSS | high polyreactivity
12 | QVQLVESGGGLVQAGGSLRLSCAAYGRIFNEYAKGWYRQAPGKERELVAAITYSDDSTYYADSVKGRFTISRDNAKNTVYLQLNSLKPEDTAVYYCNADTPVWDGHAYPVDYWGQGTQVTVSS | low polyreactivity
13 | QVQLVESGGGLVQAGGSLRLSCAPSGRTFWYNAMGWYRQAPGKERELVATITSGGRTSYADSVKGRFTISRDNAKNTVYLQMNSLKPEDTAVYYCAATTGWYGARYGYWGQGTQVTVSS | high polyreactivity
14 | QVQLVESGGGLVQAGGSLRLSCAASGRIFRGYAMGWYRQAPGKERELVAVISYSGTRTYYADSVKGRFTISRDNAKNTVYLQMNSLKPEDTAVYYCNARANGFKDGYWGQGTQVTVSS | high polyreactivity
15 | QVQLVESGGGLVQAGGSLRLSCAASGFTFRWYAIGWYSQAPGKEREFVATISTRGGNTYYADSVKGRFTISRDNAKNTVYLQMNSLKPEDTAVYYSAAVGYAAYHRMDYWGQGTQVNVSS | high polyreactivity
16 | QVQLVESGGGLVQAGGSLRLSCAASGRTFGRYPMGCYRQAPGKERELVAAIRYSGSSTYYADSVKGRFTISRDNAKNTVYLQMYSLKPEDTAVYYCAKRYYGKDYWGQGSQVTVSS | high polyreactivity
17 | QVQLVESGGGLVQAGGSLRLSCAASGIIFSANAMGWYRQAPGKERELVAAISRDGSTYYADSVKGRFTISRDNAKNTVYLQMNSLKPEDTAVYYCAVDPIYYWRPGYDYWGQGTQVTVSS | low polyreactivity
